Experimental data published in doi:10.1101/2021.12.07.471597 (bioRxiv, 2021).

Key:
VHH72.65-Fc = VHH72.65-Fc (llama); assay: BLI
VHH72.76-Fc = VHH72.76-Fc (llama); assay: BLI
VHH72.66-Fc = VHH72.66-Fc (llama); assay: BLI
VHH72.71-Fc = VHH72.71-Fc (llama); assay: BLI
VHH72.6-Fc = VHH72.6-Fc (llama); assay: BLI
VHH72-Fc = VHH72-Fc (llama); assay: BLI
[1] = biological target: biotinylated SARS-CoV-2 RBD (Wuhan) (SARS-CoV-2, UniProt P0DTC2, biotin); assay: flow cytometry on cells

Measured: binding result

B1: SARS-CoV-1 RBD (domain or fragment)
chain: not shown
binds: VHH72.65-Fc | VHH72.76-Fc | VHH72.66-Fc | VHH72.71-Fc | VHH72.6-Fc | VHH72-Fc

B2: VHH72 displayed on yeast (VHH)
VHH: QVQLQESGGGLVQAGGSLRLSCAASGRTFSEYAMGWFRQAPGKEREFVATISWSGGSTYYTDSVKGRFTISRDNAKNTVYLQMNSLKPDDTAVYYCAAAGLGTVVSEWDYDYDYWGQGTQVTVSS
binds: [1]
